This note sets out measurements from patent US5851983A, “Elastase inhibitory polypeptide and process for production thereof by recombinant gene technology” (Teijin Limited, priority 1987, dated 1998).

In data set [1] the target is T1, polymorphonuclear leukocyte elastase from human sputum (Homo sapiens, UniProt P08246).
T1 construct: Polymorphonuclear leukocyte elastase from human sputum (EPC Co; Funakoshi Yakuhin); purchased EPC Co. (via Funakoshi Yakuhin); host or cells: human sputum
T1 sequence (P08246 30-267): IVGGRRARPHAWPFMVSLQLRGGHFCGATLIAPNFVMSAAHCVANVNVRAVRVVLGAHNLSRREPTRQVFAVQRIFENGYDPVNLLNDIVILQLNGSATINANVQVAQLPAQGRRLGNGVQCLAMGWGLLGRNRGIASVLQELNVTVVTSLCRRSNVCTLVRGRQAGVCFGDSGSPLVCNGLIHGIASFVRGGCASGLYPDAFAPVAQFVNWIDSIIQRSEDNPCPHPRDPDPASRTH
In words: Serine protease inhibitory assay, Example 12: human elastase. In kind it is biochemical. The following applies: read-out: concentration of inhibitory protein which exhibits a 50% inhibition; enzyme 10^-9 M; MeO-Suc-Ala-Ala-Pro-Val-pNA 0.3 mM; 37° C. Here is the method:
(§1) To each well of a 96-well ELISA microplate were added 140 μl of the above-mentioned buffer, 20 μl of a test solution, and 20 μl of the enzyme solution, and the mixture was stirred at 37° C. for 30 minutes. Next, 20 μl of the substrate solution was added to the well, the mixture was stirred at 37° C. for one hour to develop same, and the absorbance at 405 nm was measured.

In another data set the target is T2, Calf pancreatic trypsin (Bos taurus, UniProt P00760).
T2 construct: (2) Calf pancreatic trypsin (Sigma); purchased Sigma; host or cells: calf pancreas
T2 sequence (P00760 24-246): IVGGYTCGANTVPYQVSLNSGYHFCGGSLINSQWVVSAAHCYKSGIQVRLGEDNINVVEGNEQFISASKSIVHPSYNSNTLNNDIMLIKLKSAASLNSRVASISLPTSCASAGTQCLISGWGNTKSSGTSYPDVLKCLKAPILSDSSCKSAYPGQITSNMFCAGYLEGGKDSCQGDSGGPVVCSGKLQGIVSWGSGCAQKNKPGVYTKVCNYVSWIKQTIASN
Nature of the data set: Serine protease inhibitory assay, Example 12: trypsin. In kind it is biochemical. The following applies: read-out: concentration of inhibitory protein which exhibits a 50% inhibition; enzyme 10^-7 M; Bz-Arg-pNA 1.0 mM; 37° C. The method, then:
Assay of serine protease inhibitory activity of active-type (Asn^55 -Ala^107) SLPI fragment polypeptide
The active-type (Asn^55 -Ala^107) SLPI fragment polypeptide obtained by refolding by the procedure shown in Example 11 as measured to determine its inhibitory activity to various serine proteases. The assay result thereof is shown as follows.
Enzyme solution: The following enzymes were dissolved in the above-mentioned buffer solutions at a concentration ten-times higher than the concentration shown in Table 4.
(2) Calf pancreatic trypsin (Sigma)
Substrate solution: For the above-mentioned enzymes (1) to (7), the following substrates (1) to (7), respectively, were dissolved in dimethyl sulfoxyde to a concentration of 10 mM to prepare stock solutions, which were then dissolved in the above-mentioned buffer solution to concentration ten-times higher than final concentrations, to prepare substrate solutions. […]
as §1
Moreover, an inhibitory constant Ki of the present (Asn^55 -Ala^107) SLPI was calculated on the basis of the above data by a method of Dixon, M. and Webb, E. C. (1979), Enzyme, Longman or a method of Henderson, P. J. F. (1972) Biochem. J., 127, 321-333.

Data set [2] deals with T1, polymorphonuclear leukocyte elastase from human sputum. Nature of the data set: Thermal stability (Example 14). Type of data set: physicochemical. The conditions noted are these: 50 mM Tris-HCl (pH 7.8), 50° C. for 2 hours. The method, then: After a solution of an active-type (Asn^55 -Ala^107) SLPI fragment polypeptide in 50 mM Tris-HCl (pH 7.8) was treated at 50° C. for 2 hours, the inhibitory activity on polymorphonuclear leukocyte elastase from human sputum was measured.

Data set [3] in a line: Partial hydrolysis with healthy human saliva (Examples 15, 16). Type of data set: in vitro ADME. The conditions noted are these: 37° C. The method, then:
Healthy human saliva was filtered through a 0.22 μm filter (Milex GS, Milipore), and in the filtrate was dissolved 1 mg/ml of the SLPI prepared in Reference Example 1. The mixture was then incubated at 37° C. for 30 days. As a control, the SLPI was dissolved in physiological saline (Physisalz; Fuso Yakuhin Kogyo), and the mixture was incubated at 37° C. for 30 days.
With an elapse of time, samples were taken and to each sample were added a Tris-HCl buffer (pH 6.8), SDS, 2-mercaptoethamel and glycerol, to final concentration of 60 mM, 2% by weight, 4% by weight and 10% by weight, respectively, and the mixture was subjected to an SDS-PAGE (U.K. Laemmli, Nature, 227, 680, 1970). The gel after electrophoresis was stained with Coomussie Brilliant Blue.
Next, polypeptides in the polyacrylamide gel thus obtained were electrically transferred to a membrane (Immobilon; Milipore) using a Milli Blot-SDE apparatus. After the transfer, the membrane was stained with 0.1% by weight of Coomassie Blue in 40% by weight methanol/1% by weight acetic acid, and washed with water. Then, after air drying, the bands b, c, d and e were excised, and for each band, the PTH-amino acids were cleaved from the N-terminus with an Applied Biosystems Protein Sequences (Applied Biosystems; 470A) and analysed with a PTH analyser (Applied Biosystems, 120A) to determine an amino acid sequence for 10 amino acids from the N-terminus.
According to the same procedure as described in Example 15, (Asn^55 -Ala^107) SLPI prepared in Example 11 was treated with healthy human saliva at 37° C., and a result is shown in FIG. 13. […] After 12 hours, a new band g (MW about 5,500) appeared.
Next, according to the same procedure as described in Example 15, the band g was electrically transferred to a membrane and N-terminal amino acid sequence was analyzed. […] The 6th amino acid could not be determined. The N-terminal amino acid sequence of the band g corresponds to an amino acid sequence starting from Arg^59 of SLPI.

Data set [4] deals with T3, polymorphonuclear leucocyte elastase from human sputum (Homo sapiens, UniProt P08246).
T3 construct: Polymorphonuclear leukocyte elastase from human sputum (EPC Co; Funakoshi Yakuhin); purchased EPC Co. (via Funakoshi Yakuhin); host or cells: human sputum
T3 sequence (P08246 30-267): T1 sequence (P08246 30-267)
Nature of the data set: Simultaneous treatment with healthy human saliva and elastase (Examples 28, 29). Type of data set: in vitro ADME. The conditions noted are these: 37° C. Here is the method:
(1) Healthy human saliva was ultra-filtered through a 0.22 μm filter (Millex GS, Millipore), and to the filtered saliva were added SLPI and polymorphonuclear leucocyte elastase from human sputum (EPC, Funakoshi Yakuhin) to a final concentration of 50 μM respectively. The mixture was incubated at 37° C., samples were taken as time elapsed, and analyzed by SDS-PAGE as described in Example 27.
(2) Next, the band J was transferred to a membrane as described in Example 27, and N-terminal amino acid sequence was analyzed.
(1) According to the same procedure as described in Example 28, to healthy human saliva were dissolved SLPI and polymorphonuclear leucocyte elastase from human sputum to final concentrations of 50 μM and 100 μM respectively, and the mixture was incubated at 37° C. Samples were taken as time elapsed, and analyzed by SDS-PAGE.
(2) Next, N-terminal amino acid sequence of the band M was analyzed as described in Example 27.

For “(Asn^55 -Ala^107) SLPI: polypeptide having an amino acid sequence starting with the 55th Asn and ending at the 107th Ala of SLPI (NPTRRKPGKCPVTYGQCLMLNPPNFCEMDGQCKRDLKCCMGMCGKSCVSPVKA)”, the IC50 in data set [1] was 1 nM; with Calf pancreatic trypsin it was 130 nM. Moreover, the “elastase inhibitory activity after heat treatment (thermal stability)” value in data set [2] is on record as “maintained at the same level”. In data set [3] (96 hours), the “SDS-PAGE band after incubation in physiological saline without saliva” value is reported as “only the band f having an MW of about 5,800 remained”. Moreover, the “SDS-PAGE bands after incubation in healthy human saliva” value in data set [3] (96 hours, band f = starting polypeptide, band g MW about 5,500) was “only the band g remained after 96 hours of incubation”. The “cleavage sites in healthy human saliva” value in data set [3] (SDS-PAGE bands, N-terminal sequencing) is on record as “cleaved at a site between Arg^58 -Arg^59”. Moreover, the “SDS-PAGE bands on simultaneous treatment with healthy human saliva and elastase” value in data set [4] (50 μM polypeptide, elastase 50 μM (Example 28) or 100 μM (Example 29)) was “after 48 hours, almost only band M was observed”. The “cleavage site on simultaneous treatment with healthy human saliva and elastase” value in data set [4] (N-terminal sequencing of SDS-PAGE band) is reported as “cleaved at the site between Thr^57 -Arg^58”.
